In IntAct's records for PubMed 20051244:

B1: Octaprenyl diphosphate synthase (Escherichia coli (strain K12)), P0AD57 (parent)
chain: MNLEKINELTAQDMAGVNAAILEQLNSDVQLINQLGYYIVSGGGKRIRPMIAVLAARAVGYEGNAHVTIAALIEFIHTATLLHDDVVDESDMRRGKATANAAFGNAASVLVGDFIYTRAFQMMTSLGSLKVLEVMSEAVNVIAEGEVLQLMNVNDPDITEENYMRVIYSKTARLFEAAAQCSGILAGCTPEEEKGLQDYGRYLGTAFQLIDDLLDYNADGEQLGKNVGDDLNEGKPTLPLLHAMHHGTPEQAQMIRTAIEQGNGRHLLEPVLEAMNACGSLEWTRQRAEEEADKAIAALQVLPDTPWREALIGLAHIAVQRDR
partner: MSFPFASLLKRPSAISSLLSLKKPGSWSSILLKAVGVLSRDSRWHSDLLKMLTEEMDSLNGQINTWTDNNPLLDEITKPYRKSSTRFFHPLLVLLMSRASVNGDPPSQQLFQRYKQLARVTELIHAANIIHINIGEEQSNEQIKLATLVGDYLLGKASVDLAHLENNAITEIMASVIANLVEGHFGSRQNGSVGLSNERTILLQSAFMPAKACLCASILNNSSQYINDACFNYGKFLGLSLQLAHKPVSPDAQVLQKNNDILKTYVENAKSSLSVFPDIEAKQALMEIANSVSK
B2: Octaprenyl diphosphate synthase (Escherichia coli (strain K12)), P0AD57 (parent)
chain: B1 chain
partner: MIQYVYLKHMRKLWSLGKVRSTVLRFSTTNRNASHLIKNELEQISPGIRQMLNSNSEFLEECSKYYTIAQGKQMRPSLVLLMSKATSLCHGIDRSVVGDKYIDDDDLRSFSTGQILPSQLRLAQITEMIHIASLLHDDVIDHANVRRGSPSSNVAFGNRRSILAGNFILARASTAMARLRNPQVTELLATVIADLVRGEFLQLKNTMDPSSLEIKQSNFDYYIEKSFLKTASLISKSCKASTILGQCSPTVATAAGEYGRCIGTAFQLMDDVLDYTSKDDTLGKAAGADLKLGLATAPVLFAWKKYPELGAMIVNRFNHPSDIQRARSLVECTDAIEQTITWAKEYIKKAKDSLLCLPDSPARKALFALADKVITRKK

Variants of: B1
Settings: with dlp1_schpo dlp1, O13851

effect of a mutation on the interaction	Variant
decreasing interaction	MNLEKINELTAQDMAGVNAAILEQLNSDVQLINQLGYYIVSGGGKRIRPMIAVLAARAVGYEGNAHVTIAALIEFIHTATLLHDDVVDESDMRRGKATANAAFGNAASVLVGDFIYTRAFQMMTSLGSLKVLEVMSEAVNVIAEGEVLQLMNVNDPDITEENYMRVIYSKTARLFEAAAQCSGILAGCTPEEEKGLQDYGRYLGTAFQLIDDLLDYNADGEQLGKNVGDDLNEGKPTLPLLHAMHHGTPEQAQMIRTAIEQGNGRHLLEPVLEAMNACGSLEWTRQRAEEEADKAIAALQVLPDTPWREALIGLAHIAVQADR [R321A]

Variants of: B2
Settings: with dps1_schpo dps1, O43091

effect of a mutation on the interaction	Variant
increasing interaction	MNLEKINELTAQDMAGVNAAILEQLNSDVQLINQLGYYIVSGGGKRIRPMIAVLAARAVGYEGNAHVTIAALIEFIHTATLLHDDVVDESDMRRGKATANAAFGNAASVLVGDFIYTRAFQMMTSLGSLKVLEVMSEAVNVIAEGEVLQLMNVNDPDITEENYMRVIYSKTARLFEAAAQCSGILAGCTPEEEKGLQDYGRYLGTAFQLIDDLLDYNADGEQLGKNVGDDLNEGKPTLPLLHAMHHGTPEQAQMIRTAIEQGNGRHLLEPVLEAMNACGSLEWTRQRAEEEADKAIAALQVLPDTPWREALIGLAHIAVQADR [R321A]
